The values below come from the supplement of paper PMC10567573.

The chains are these.
B1: SCNN1D (parent)
chain: RRPSPVLRHLELLDEFARENIDSL
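Note: lentivirally expressed fusions sorted by FACS into six bins by GFP to DsRed ratio, PSI derived from sequencing read proportions per bin multiplied by bin number.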

Variants of B1 are the subject of the data set. The data set is described as follows: protein stability index of a GFP-peptide fusion (GPS, HEK-293T) (PSI 1-6); higher = more stable. To be noted: c terminus: a fixed tail appended.
Turning to RRPSPVWRHLELLDEFARENIDSL [L7W], the protein stability index came to 2.18.
In the case of RRPSPVPRHLELLDEFARENIDSL [L7P], the protein stability index came to 4.08.
With RRPSPVIRHLELLDEFARENIDSL [L7I] the figure was 3.1.
The same measure for RRPSPVKRHLELLDEFARENIDSL [L7K]: 3.82.
Take RRPSPVYRHLELLDEFARENIDSL [L7Y]: the protein stability index is 3.24.
With RRPSPVVRHLELLDEFARENIDSL [L7V] the figure was 3.1; with RRPSPVFRHLELLDEFARENIDSL [L7F], 3.29; with RRPSPVCRHLELLDEFARENIDSL [L7C], 3.53.
With RRPSPVRRHLELLDEFARENIDSL [L7R], the protein stability index was 3.64.
The same measure for RRPSPVGRHLELLDEFARENIDSL [L7G]: 4.17; for RRPSPVMRHLELLDEFARENIDSL [L7M]: 2.9; for RRPSPVTRHLELLDEFARENIDSL [L7T]: 3.48.
Consider RRPSPVHRHLELLDEFARENIDSL [L7H], for which the protein stability index turned out to be 3.4.
With RRPSPVSRHLELLDEFARENIDSL [L7S] the figure was 3.38; with RRPSPVERHLELLDEFARENIDSL [L7E], 3.53; with RRPSPVQRHLELLDEFARENIDSL [L7Q], 3.4.
RRPSPVARHLELLDEFARENIDSL [L7A]: the protein stability index stood at 3.04.
With RRPSPVDRHLELLDEFARENIDSL [L7D] the figure was 4.49.
With RRPSPVNRHLELLDEFARENIDSL [L7N] the figure was 3.6; with RRPSPVLEHLELLDEFARENIDSL [R8E], 4.4.
With RRPSPVLDHLELLDEFARENIDSL [R8D], the protein stability index is 4.71.
The same measure for RRPSPVLKHLELLDEFARENIDSL [R8K]: 3.5; for RRPSPVLWHLELLDEFARENIDSL [R8W]: 2.7.
With RRPSPVLTHLELLDEFARENIDSL [R8T] the figure was 3.59.
In the case of RRPSPVLVHLELLDEFARENIDSL [R8V], the protein stability index came to 2.99.
With RRPSPVLYHLELLDEFARENIDSL [R8Y] the figure was 2.87; with RRPSPVLHHLELLDEFARENIDSL [R8H], 3.61.
The same measure for RRPSPVLSHLELLDEFARENIDSL [R8S]: 3.77.
With RRPSPVLIHLELLDEFARENIDSL [R8I] the figure was 2.37.
As for RRPSPVLLHLELLDEFARENIDSL [R8L], the protein stability index was found to be 2.49.
The same measure for RRPSPVLAHLELLDEFARENIDSL [R8A]: 3.33.
Turning to RRPSPVLMHLELLDEFARENIDSL [R8M], the protein stability index came out at 3.43.
The same measure for RRPSPVLQHLELLDEFARENIDSL [R8Q]: 4.09; for RRPSPVLNHLELLDEFARENIDSL [R8N]: 4.34.
As for RRPSPVLFHLELLDEFARENIDSL [R8F], the protein stability index is 2.61.
The same measure for RRPSPVLPHLELLDEFARENIDSL [R8P]: 4.18.
The same measure for RRPSPVLCHLELLDEFARENIDSL [R8C]: 2.09; for RRPSPVLRVLELLDEFARENIDSL [H9V]: 2.4.
As to RRPSPVLRKLELLDEFARENIDSL [H9K], the protein stability index turned out to be 3.28.
For the variant RRPSPVLRYLELLDEFARENIDSL [H9Y], the protein stability index came to 1.83.
With RRPSPVLRELELLDEFARENIDSL [H9E], the protein stability index came to 3.99.
The same measure for RRPSPVLRGLELLDEFARENIDSL [H9G]: 3.76; for RRPSPVLRTLELLDEFARENIDSL [H9T]: 3.83; for RRPSPVLRILELLDEFARENIDSL [H9I]: 2.24.
Turning to RRPSPVLRMLELLDEFARENIDSL [H9M], the protein stability index came out at 1.89.
RRPSPVLRRLELLDEFARENIDSL [H9R]: the protein stability index came to 3.92.
The same measure for RRPSPVLRPLELLDEFARENIDSL [H9P]: 3.95; for RRPSPVLRSLELLDEFARENIDSL [H9S]: 3.68.
The same measure for RRPSPVLRWLELLDEFARENIDSL [H9W]: 1.69; for RRPSPVLRFLELLDEFARENIDSL [H9F]: 1.74; for RRPSPVLRALELLDEFARENIDSL [H9A]: 2.65.
As for RRPSPVLRDLELLDEFARENIDSL [H9D], the protein stability index is 3.99.
With RRPSPVLRNLELLDEFARENIDSL [H9N] the figure was 4.09; with RRPSPVLRLLELLDEFARENIDSL [H9L], 2.17.
As to RRPSPVLRCLELLDEFARENIDSL [H9C], the protein stability index came to 2.48.
Consider RRPSPVLRQLELLDEFARENIDSL [H9Q], for which the protein stability index came to 3.79.
With RRPSPVLRHLEYLDEFARENIDSL [L12Y] the figure was 3.56; with RRPSPVLRHLESLDEFARENIDSL [L12S], 4.4; with RRPSPVLRHLECLDEFARENIDSL [L12C], 3.97.
With RRPSPVLRHLERLDEFARENIDSL [L12R], the protein stability index stood at 3.63.
In the case of RRPSPVLRHLEGLDEFARENIDSL [L12G], the protein stability index was 4.09.
As to RRPSPVLRHLEVLDEFARENIDSL [L12V], the protein stability index worked out at 4.05.
With RRPSPVLRHLETLDEFARENIDSL [L12T], the protein stability index came to 4.35.
The same measure for RRPSPVLRHLEFLDEFARENIDSL [L12F]: 2.81.
As for RRPSPVLRHLEMLDEFARENIDSL [L12M], the protein stability index is 3.98.
Consider RRPSPVLRHLEPLDEFARENIDSL [L12P], for which the protein stability index was found to be 4.4.
With RRPSPVLRHLEELDEFARENIDSL [L12E] the figure was 4.08.
With RRPSPVLRHLENLDEFARENIDSL [L12N] the figure was 3.9; with RRPSPVLRHLEHLDEFARENIDSL [L12H], 4.25; with RRPSPVLRHLEQLDEFARENIDSL [L12Q], 4.51.
As to RRPSPVLRHLEILDEFARENIDSL [L12I], the protein stability index turned out to be 3.65.
With RRPSPVLRHLEKLDEFARENIDSL [L12K] the figure was 4.1; with RRPSPVLRHLEWLDEFARENIDSL [L12W], 3.1.
Turning to RRPSPVLRHLEDLDEFARENIDSL [L12D], the protein stability index was found to be 4.64.
Regarding RRPSPVLRHLEALDEFARENIDSL [L12A], the protein stability index amounted to 3.81.
With RRPSPVLRHEELLDEFARENIDSL [L10E], the protein stability index was determined as 4.49.
As for RRPSPVLRHIELLDEFARENIDSL [L10I], the protein stability index came to 2.1.
Turning to RRPSPVLRHMELLDEFARENIDSL [L10M], the protein stability index came out at 2.34.
As to RRPSPVLRHSELLDEFARENIDSL [L10S], the protein stability index was found to be 4.16.
For the variant RRPSPVLRHRELLDEFARENIDSL [L10R], the protein stability index was 4.46.
The same measure for RRPSPVLRHNELLDEFARENIDSL [L10N]: 4.23; for RRPSPVLRHVELLDEFARENIDSL [L10V]: 3.41; for RRPSPVLRHPELLDEFARENIDSL [L10P]: 3.56.
The same measure for RRPSPVLRHWELLDEFARENIDSL [L10W]: 3.23; for RRPSPVLRHKELLDEFARENIDSL [L10K]: 4.33.
With RRPSPVLRHYELLDEFARENIDSL [L10Y] the figure was 3.
For the variant RRPSPVLRHQELLDEFARENIDSL [L10Q], the protein stability index is 3.84.
With RRPSPVLRHTELLDEFARENIDSL [L10T] the figure was 3.59.
With RRPSPVLRHHELLDEFARENIDSL [L10H] the figure was 3.98; with RRPSPVLRHFELLDEFARENIDSL [L10F], 3.9; with RRPSPVLRHCELLDEFARENIDSL [L10C], 3.24.
With RRPSPVLRHDELLDEFARENIDSL [L10D] the figure was 4.42; with RRPSPVLRHGELLDEFARENIDSL [L10G], 3.95; with RRPSPVLRHAELLDEFARENIDSL [L10A], 3.84.
